Reference: the nanobody polyreactivity screen of Harvey et al. (2022)

Assay: yeast display, Sf9 membrane polyspecificity reagent, FACS + sequencing; frameworks hold sequencing errors
Outline: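 Synthetic nanobody libraries on Saccharomyces cerevisiae BJ5465 were galactose-induced for 36–48 hours, stained 1 hour at 4 °C with 10% biotinylated, detergent-solubilized Sf9 membrane reagent and enriched on streptavidin microbeads. FACS then separated cells into low and high (top ~1%) gates by anti-HA (expression) and streptavidin (reagent binding) fluorescence. Genes were colony-PCR amplified, MiSeq 2 × 250 sequenced and CDR-length filtered. A clone's polyreactivity label is that of its gate of origin.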
With “QVQLVESGGGLVQAGGSLRLSCAASGRIFVTNTMGWYRQAPGKERELVAAIDNSAGSTYYADSVKGRFTISRDNAKNTVYLQMNSLKPEDTAVYYCAADYPPYYGYGYWGQGTQVSVSS” the “polyreactivity (PSR sort gate)” value was “low polyreactivity”. For “QVQLVESGGRLVQAGGSLRLSCAASGFTFGAYAMGWYRQAPGKERELVATIRYSGDSTYYADSVKGRFTISRDNAKNTVYLQMNSLKPEDTAVYYCAADVYGGIGYDYWGQGTQVTVSS”, the “polyreactivity (PSR sort gate)” value was “low polyreactivity”. For “QVQLVESGGGLVQAGGSLRLSCAASGSTFTVNAMGWYRQAPGKERELVAAINGSGDITYYADSVTGRFTISRDNAKNTVYLQMNSLKPEDTAVYYCAADQGVPSTYDYWGQGTQVTVSS”, the “polyreactivity (PSR sort gate)” value was “low polyreactivity”. For “QVQLVESGGGLVQAGGSLRLSCAASGRTLYRNAMGWDRQAPGKERELVATITSGGSTYYADSVKGRFTISRDTAKNTVYLLMNSLKPEDTAVYYCNADWYWRVYWGQGTQVTVSS”, the “polyreactivity (PSR sort gate)” value was “high polyreactivity”. With “QVQLVESGGGLVQAGGSLRLSCAASGSIFSVYAMGWYRQAPGKERELVAGITRGGSTYADSVKGRFTISRDNAKNTVYLQMNSLKPEDTAVSYCAADALIATPSWGKYNYWGQGTQVTVSS” the “polyreactivity (PSR sort gate)” value was “high polyreactivity”. With “QVQLVESGGGLVHAGGSLLLSCAASGRTLGWYAMGWYIQAPGKERELVATISITGGSTYYAVSVKGRFTISRDYAKNTVYLQMNSLKPEDTAVYYCAARHGSRRRYYYWGQGTQVTVSS” the “polyreactivity (PSR sort gate)” value was “high polyreactivity”. With “QVQLVESVGGLVQAGGSLRLSCAASGLTFGGNAMGRYRQAPGKVRELVAAISGSGGRTYYADSVKGRFTISRDNAKNTVYLQMNSLKPEDTAVYYCNAATKRRTSDYWGQGTQVTVSS” the “polyreactivity (PSR sort gate)” value was “high polyreactivity”. In the case of “QVQLVESVGGLVQAGGSLRLSCAASGSIISFNAMGWYRQAPRKERELVASISRNGGSSYYADSVKGRFTISRDNAKNTVYLQMNSLKPEDTAVYYCAVKVRNRRYGYWGQGTQVTVSS”, the “polyreactivity (PSR sort gate)” value is reported as “high polyreactivity”. With “QVQLVESGGGLVQAGGSLRLSCAASGRIFPTYTMGWYRQAPGKERELVAAINRGGGSTYYADSVKGRFTISRDNAKNTVYLQMNSLKPEDTAVYYCNARTYYRYYGYDYWGQGTQVTVSS” the “polyreactivity (PSR sort gate)” value was “low polyreactivity”. With “QVQLVESGGGLVQAGGSLRLSCAASGSTFVYYDMGWYRQAPGKERELVAAITNGGNTYYADSVKGRFTISRDNAKNTVYLQMNSLKPEDTAVYYCAKLYTDAIVWSAYDYWGQGTQVTVSS” the “polyreactivity (PSR sort gate)” value was “low polyreactivity”. With “QVQLVESGGGLVQAGGSLRLSCAASGFIFGQYAMGWYRQAPGKERELVAAISWSGGRTNYADSVKGRFTISRDNAKNTVYLQMNSLKPEDTAVYYCAARKGKYPQYTYGYWGQGTQVTVSS” the “polyreactivity (PSR sort gate)” value was “high polyreactivity”. In the case of “QVQLVESGGGLVQAGVSLRVSCAASGRTFSRYTMGWYRQAPGKEREMVAAISKRGGSTYYADSVKGRFTISRDNAKNTVYLQRNSLKPEETAVYYCNAYGLVGLVGVIMYYWGQGTQVTVSS”, the “polyreactivity (PSR sort gate)” value is reported as “high polyreactivity”. For “QVQLVESGGGLVQAGGTLPLSCAATGSILGYYAMGWYRHAPGKERELVAITSGDSTYYADSVKGRFTISRDNAKNTVYLQMNSLKPEDTAVYYCAADVVRGSRYNRYGYWGQGTQVTVSS”, the “polyreactivity (PSR sort gate)” value was “high polyreactivity”. For “QVQLVESGGGIVQAGGSLRLSCAASGFIFRYYAMGWYRQAPGKERELVAAISWSGGSTYYADSVKGRFTISRDNAKNTVYLQMNSLKPEETAVYYCAAEPTGWVWYAGYGYYWGQGTQVTVSS”, the “polyreactivity (PSR sort gate)” value was “high polyreactivity”. In the case of “QVQLVESGGGLVQAGGSLRLSCAASGSIFFYNTMGWYRQAPGKERELVAAISASGGRTYYADSVKGRFTISRDNAKNTVYLQMNSLKPEDTAVYYCAVRVPYRGYTRYDYWGQGTQVTVSS”, the “polyreactivity (PSR sort gate)” value is reported as “high polyreactivity”. In the case of “QVQLVESGGGLVQAGGSLRLSCAASGLTFSAYAMGWYRQAPGKERELVAAITSSGGSTYADSVKGRFTISRDNAKNTVYLQMNSLKPEDTAVYYCNADLGDYGWYSSYDYWGQGTQVTVSS”, the “polyreactivity (PSR sort gate)” value is reported as “low polyreactivity”. With “QVQLVESGGGLVQAGGSLRLSCAASGFTFEWYTMGWYRQAPGKERELVADISGDGSTYYADSVKGRFTISRDNAKNTVYLQMNSLKPEDTAVYYCAASFWGIAMGYWAQGTQVTVSS” the “polyreactivity (PSR sort gate)” value was “high polyreactivity”. In the case of “QVQLQESGGGLVQAGGSLRLSCAASGTISDSGLMGWYRQAPGKERELVAGISSGGITNYADSVKGRFTISRDNAKNKVYLQMNSLKPEDTAVYWGQGTQVTVSS”, the “polyreactivity (PSR sort gate)” value is reported as “low polyreactivity”. In the case of “QVQLVESGGGLVQAGGSLRLSCAASGSTFSSYVMGWYRQAPGKERELVAAISSIGGSTYYADSVKGRFTISRDNAKNTVYLQMNSLKPEDTAVYYCAAEPPGSTYEGGYWGQGTQVTVSS”, the “polyreactivity (PSR sort gate)” value is reported as “low polyreactivity”. For “QVQLVESGGGLVQAGGSLRLSCASSGFTINWNDMGWYRQAPGKERELVAAISGGASTYYADSVKGRFTISRDNAKNTVYLQMNSLKPEDTAVYYCAADLDEWGYLFDYWGQGTQVTVSS”, the “polyreactivity (PSR sort gate)” value was “low polyreactivity”. For “QVQLVESGGGLDQAGGSLRLSCAASGSTSLSYAMGWYRQAPGKERELVAAISRGGSTTYADSVKGRFTISRDNAKNPVYFQMKSLKPVDTAVYYCAVGYDIVRYSYSPFYRYDYWGQGTQVTVSS”, the “polyreactivity (PSR sort gate)” value was “low polyreactivity”. With “QVQLVDSGGGLVQAGGSLRLSCAASGSTFTTNGMGGYRQAPGKERELVAAITRGGSTNYADSVKGRFTISRDNAKNTVFLQMNSLKPEDTAVYYCAAQNYWYYPRRFDYWGQGTQVTVSS” the “polyreactivity (PSR sort gate)” value was “high polyreactivity”. With “QVQLVESGGGLVQAGGSLRLSCAASGRTFYAYAMGWYRQAPGKERELVATISSSDASTYYADSVKGRFTISRDNAKNTVNLQMNSLKPEETAVYYCNADFVRPSWARGRNNGLYYWGQGTQVTVSS” the “polyreactivity (PSR sort gate)” value was “low polyreactivity”. With “QVQLAESGACLVQAGGRLRLSCAASGRIFSFYAMGWYRQAPGKERELVITSGGDTNYADSVKGRFTISRDNAKNSVYLQMNSLKPEDTAVYYCNAEGDRSQPYNFDYWGQGTQVTVSS” the “polyreactivity (PSR sort gate)” value was “low polyreactivity”. With “QVQLVESGGGLVQAGGILRVSCAASGRIFRFYAMGWYRQAPGKERELVADISRRGGSTYYADSVKGRFTISRDNAKNTVYLQMNSLKPEDTAVYYCNARWYRTGSTYHDDYWGQGTQVTVSS” the “polyreactivity (PSR sort gate)” value was “high polyreactivity”. With “QVPLVESGGGLVHAVGSLRLSCAASGSIFYPYAMGWNRKAPWKERELVARITSGGSTHYADSVKGRFTISRDNDNHNVYLHMNSLKPEDTAVYYFNADYWFVEYDYWGQGTQVTVSS” the “polyreactivity (PSR sort gate)” value was “low polyreactivity”. For “QVQLVESGGGLVQAGGSLRLSCAASGIIFPSYAMGWYRQAPGKERELVADISNDDSTNYADSVKGRFTISRDNAKNTVYLQMNSLKPEDTAVYYCNAEEWGFWWRYDYWGQGTQVTVSS”, the “polyreactivity (PSR sort gate)” value was “high polyreactivity”. With “QVQLVESGGGLDQARGSLRLSCAASGLTFVEYAMGWYRQAPGKESELVADITISGGRTYYADSVKGRFTISRDNAKYTVYLQMNSLKPEDTAVYYCNAQSYLGVTHRGYIKNGYDYWGQGTQVTVSS” the “polyreactivity (PSR sort gate)” value was “low polyreactivity”. For “QVQLVESGGGLVQAGGSLRLSCAASGRIFELYAMGWYRQAPGKERELVADITTIGDSTYYADSVKGRFTISRDNAKNTVYLQMNSLKPEDTAVYYCAADPYVDSYDSWGQGTQVTVSS”, the “polyreactivity (PSR sort gate)” value was “low polyreactivity”. In the case of “QFQLVESGGGLVQAGGTLRLSCPATGLIFAYNTMGWYRHAPGKERELVAGITSGGSTYYADSVKGRFTISRDNAKNTVYLHLNSLKPEDSAVYYCAAAYRNWSVSFGYWGQGTQVTVSS”, the “polyreactivity (PSR sort gate)” value is reported as “high polyreactivity”. With “QVQLVESGGGLVQAGGSLRLICAASGYTLGPYAMGWYRQAPGKERELVAAITSGGSTYYADSVKGRFPISRDNAKHTVYLQMNSLKPEDSAVYYCNKDKGWLAHSRIWLWYDYWGQGTQVTVSS” the “polyreactivity (PSR sort gate)” value was “low polyreactivity”. With “QVQLVESGGGLVQAGGSLLLNCAASGITFAGNAMGWYRQAPGKERELLAAISGSGGSTSYADSVKGRFTISRDDAKNTVYLQMNSLKPEDTAVYYGSAASRLYHWHALFGSWGQGTQVTVSS” the “polyreactivity (PSR sort gate)” value was “low polyreactivity”. In the case of “QVQLVESGGGLVQAGGSLRLSCAASGRIIADNAMGWYRQAPGKERELVATISSGGSTSYADSVKGRFTISRDNAKNTVYLQMNSLKPDDTAVYYCATPYTGPSRPYDYWGQGTQVTVSS”, the “polyreactivity (PSR sort gate)” value is reported as “low polyreactivity”. With “QVQLVESGGGLVQAGGSLRLRCAASGFIFRWYAMGWYRQAPGKERELVARISNGGSTYYADSVKGRFTISRDNAKKTVYLQMNSLKPEDTAVYYCAARLPYGYYSAGYYYWGQGTQVTVSS” the “polyreactivity (PSR sort gate)” value was “high polyreactivity”. For “QVQLVESGGGLVQAGGSLRFSCAASGFTFSYYAMGCYRQAPGKERELVAAISWSGGSTYYADSVKGRFTISRDTAKNTVYLQMNSLKPEDTAVYYCAAYLFYSSRSSYYGYDYWGQGTQVTVSS”, the “polyreactivity (PSR sort gate)” value was “high polyreactivity”. In the case of “QVQLVESGGGLVQAGGSLRLSCAASGSTIWFYVMGWYRQAPGKERELVATIRWSTSSTYADSVKGRFTISRDNAMNTVYLQMNILKPEDTAVYYCNAQYSQVNGYDYWGQGTQVTVSS”, the “polyreactivity (PSR sort gate)” value is reported as “low polyreactivity”. With “QVQLVESGGGLVQAGGSLRLSCASGLTFYRYAMGWYRQAPGKERELVAAINVRGGSTYYADSVKGRFTISRDNAKNTVYLQMNSLKPEETAVYYCAAYYPGFSYRYDYWGQGTQVTVSS” the “polyreactivity (PSR sort gate)” value was “low polyreactivity”. With “QVQLVESGGGLVQAGGSLRLRWAASGRIFLNYAMGLYRQEPGKEREVVAAISRTGGRKYYADSVKGRFTISRDTEKNTVYLQMYSLKPEDTAVYYCDAYYSGFLTYGLDYWGQGTQVTLSS” the “polyreactivity (PSR sort gate)” value was “high polyreactivity”. In the case of “QVQLVESGGGIVQAGGSLRLSCAASGSIFSGNAMGWYRQAPGKERELVAAIDRGGSTYYADSVKGRFTISRDNAKNTVYLQMNRLKPEDTAVYYCAKEYIVYNWAFYYWGQGTQVTVSS”, the “polyreactivity (PSR sort gate)” value is reported as “low polyreactivity”. In the case of “QVQLVESGGGLVQAGGSLRLSCAASGITFYRYALGWYRQAPGKERELVAAISSSGGSTYYADSVKGRFTISRDNAKNTVYLQMNSLKPEDTAVYYCATDSLYDYWGQGTQVTVSS”, the “polyreactivity (PSR sort gate)” value is reported as “high polyreactivity”. With “QVQLVESGGGLVQAGGSLRLLCAASGSTIVTNAMGWYRQAPGKERELVAAITSSDGITYYADSVKGRFTISRDNAKNTVYLQMNSLKPEDTAVYYCAAELVSVRYLYALHDRDYWGQGTQVTVSS” the “polyreactivity (PSR sort gate)” value was “low polyreactivity”. In the case of “QVQLVESGGGLVQAGGSLRLSCAASGITFHANAMGWNRQARGKERELVPAINWSGGSTYYADSVKGRFTISRDNAKNTVYLQMNSLKPEDTAVYYCAAELWGLFDYWGQGTQVTVSS”, the “polyreactivity (PSR sort gate)” value is reported as “low polyreactivity”. For “QVQLVESGGGLDQAGGSLRLSCAASGSIYNRYAMGWYRQAPGKERELVADISSGGGTSYADSVKGRFTISRDNAKNTVYLQMNSLKPEDTAVYYCAAELYYWTYVRFDYWGQGTQVTVSS”, the “polyreactivity (PSR sort gate)” value was “high polyreactivity”.
